{"source": "paper PMC10904049", "key": {"[1]": {"target": "Cerulean-tagged CaVβ2B subunit (Cerulean-WT β2B)", "experiment": "flow cytometric FRET assay", "conditions": "HEK293 cells, read off a plot"}, "[2]": {"target": "CaVβ4 (UniProt D4A055)", "experiment": "ITC", "conditions": "cited from earlier work"}, "[3]": {"conditions": "FSK (10 µM) + Cal (100 nM), parent: est. 100"}, "[4]": {"conditions": "no FSK, no Cal, parent: est. 7.8"}}, "data": [{"substance": "Venus-Rad-CAAX (WT Rad with a C-terminal CAAX motif) (from UniProt O88667) S272D; S300D", "values": [{"measurement": "Kd", "setting": "[1]; no FSK/Cal, parent: est. 9.3", "value": "12 ×10^3"}]}, {"substance": "Venus-tagged WT Rad (from UniProt O88667) S25D; T26D; S38D; M39D", "values": [{"measurement": "Kd", "setting": "[1]; no FSK/Cal, parent: est. 7.8", "value": "5.7 ×10^3"}]}, {"substance": "Rem2 (from UniProt Q9WTY2)", "values": [{"measurement": "Kd", "setting": "[2]", "value": 156, "unit": "µM"}]}, {"substance": "Venus-tagged WT Rad (from UniProt O88667) S256D; S272D; S289D; S298D; S300D; S305D", "values": [{"measurement": "Kd", "setting": "[1]; no FSK/Cal, parent: est. 7.8", "value": "83 ×10^3"}]}, {"substance": "Venus-Rad-CAAX (WT Rad with a C-terminal CAAX motif) (from UniProt O88667) R208A; L235A", "values": [{"measurement": "Kd", "setting": "[1]", "value": "140 ×10^3"}]}, {"substance": "Venus-tagged WT Rad (from UniProt O88667) R208A; L235A", "values": [{"measurement": "Kd", "setting": "[1]; parent: est. 8", "value": "140 ×10^3"}]}, {"substance": "Venus-tagged WT Rad (from UniProt O88667) S25A; S38A", "values": [{"measurement": "Kd", "setting": "[1]; [3]", "value": "44 ×10^3"}, {"measurement": "Kd", "setting": "[1]; [4]", "value": "7.5 ×10^3"}]}, {"substance": "Venus-Rad-CAAX (WT Rad with a C-terminal CAAX motif) (from UniProt O88667) F280A; F294A", "values": [{"measurement": "Kd", "setting": "[1]; + FSK + Cal", "value": "21 ×10^3"}, {"measurement": "Kd", "setting": "[1]; no FSK + Cal", "value": "13 ×10^3"}]}, {"substance": "Venus-tagged WT Rad (from UniProt O88667) S272A; S300A", "values": [{"measurement": "Kd", "setting": "[1]; [3]", "value": "17 ×10^3"}, {"measurement": "Kd", "setting": "[1]; [4]", "value": "6.3 ×10^3"}]}, {"substance": "Venus-Rad-CAAX (WT Rad with a C-terminal CAAX motif) (from UniProt O88667) S256D; S272D; S289D; S298D; S300D; S305D", "values": [{"measurement": "Kd", "setting": "[1]; no FSK/Cal, parent: est. 9.3", "value": "12 ×10^3"}]}, {"substance": "Venus-tagged WT Rad (from UniProt O88667) S272D; S300D", "values": [{"measurement": "Kd", "setting": "[1]; no FSK/Cal, parent: est. 7.8", "value": "18 ×10^3"}]}, {"substance": "Venus-tagged WT Rad (from UniProt O88667) S25D; S38D", "values": [{"measurement": "Kd", "setting": "[1]; no FSK/Cal, parent: est. 7.8", "value": "9.2 ×10^3"}]}, {"substance": "Venus-tagged WT Rad (from UniProt O88667) S25A; S38A; S272A; S300A", "values": [{"measurement": "Kd", "setting": "[1]; Cal (100 nM), no FSK", "value": "14 ×10^3"}, {"measurement": "Kd", "setting": "[1]; [3]", "value": "13 ×10^3"}, {"measurement": "Kd", "setting": "[1]; FSK (10 µM), no Cal", "value": "11 ×10^3"}, {"measurement": "Kd", "setting": "[1]; [4]", "value": "11 ×10^3"}]}, {"substance": "Venus-tagged WT Rad (from UniProt O88667) S25D; S38D; S272D; S300D", "values": [{"measurement": "Kd", "setting": "[1]; no FSK/Cal, parent: est. 7.8", "value": "18 ×10^3"}]}, {"substance": "Venus-tagged WT Rad (from UniProt O88667) F280A; F294A", "values": [{"measurement": "Kd", "setting": "[1]; + FSK + Cal, parent: est. 100", "value": "190 ×10^3"}, {"measurement": "Kd", "setting": "[1]; no FSK + Cal, parent: est. 8", "value": "41 ×10^3"}]}, {"substance": "Venus-Rad-CAAX (WT Rad with a C-terminal CAAX motif) (from UniProt O88667) S272D; S289D; S298D; S300D", "values": [{"measurement": "Kd", "setting": "[1]; no FSK/Cal, parent: est. 9.3", "value": "11 ×10^3"}]}, {"substance": "Venus-tagged WT Rad (from UniProt O88667) S272D; S289D; S298D; S300D", "values": [{"measurement": "Kd", "setting": "[1]; no FSK/Cal, parent: est. 7.8", "value": "57 ×10^3"}]}]}
